The values that follow come from publication PMC7376121, “In-Lipid Structure of Pressure-Sensitive Domains Hints Mechanosensitive Channel Functional Diversity” (Biophysical Journal, 2020).

B1: Mycobacterium tuberculosis MscL Y87C, MTSSL spin-labelled (TbMscL Y87R1) (natural protein)
chain: MLKGFKEFLARGNIVDLAVAVVIGTAFTALVTKFTDSIITPLINRIGVNAQSDVGILRIGIGGGQTIDLNVLLSAAINFFLIAFAVCFLVVLPYNTLRKKGEVEQPGDTQVVLLTEIRDLLAQTNGDSPGRHGGRGTPSPTDGPRASTESQ
modifications: MTSSL spin label on the cysteine at 87 (R1)
notes: also called TbY87R1
B2: Mycobacterium tuberculosis MscL F88C, MTSSL spin-labelled (TbMscL F88R1) (natural protein)
chain: B1 chain with C87Y, F88C
modifications: MTSSL spin label on the cysteine at 88 (R1)
notes: also called TbF88R1
B3: Mycobacterium tuberculosis MscL L89C, MTSSL spin-labelled (TbMscL L89R1) (natural protein)
chain: B1 chain with C87Y, L89C
modifications: MTSSL spin label on the cysteine at 89 (R1)
notes: also called TbL89R1

Changes are numbered by the printed parent chain. Names and notes keep the numbering of the source.

This series concerns the molecule itself. Briefly: PELDOR/DEER; spin-labelled single-cysteine channel in DDM detergent solution (50 mM sodium phosphate pH 7.5, 300 mM NaCl, 0.05% DDM), diluted 1:1 with deuterated ethylene glycol, flash frozen; Q band, 50 K; distances between the labels of the subunits of one channel.
For B1, the “stoichiometry N” value came out at 5.

Regarding B2, the “stoichiometry N” value was 5.

As to B3, the “stoichiometry N” value is 5.

A word on the stoichiometry N: it is the number of molecules, sites or subunits per partner or assembly.
